The source of these data is patent US20150218244A1 (Hoffmann-La Roche, published 2015).

Changes are numbered by the printed parent chain. In names and notes the source's numbering stands.

Experiment [1] addresses T1, human IL-10R1 fused to an IgG Fc region, biotinylated (human, biotinylated (site not stated)).
T1 construct: also called hu IL-10R1; IL-10R1-Fc
Description: SPR, against IL-10 wild type. How it is done: (§1) The SPR assay set-up is depicted in FIG. 15. About 770 RU of the biotinylated human IL-10R1 fused to an IgG Fc region (see SEQ ID NO: 87) were captured on the neutravidin-derivatized chip matrix of an NLC chip along vertical channels at a concentration of 30 μg/ml and a flow rate of 30 μl/min for a contact time or 240 s. Binding to huIL10R1 was measured at 5 different analyte concentrations (50, 10, 2, 0.4, 0.08 nM) by injections in horizontal orientation at 50 μl/min, recording the association rate for 180 s, the dissociation rate for 600 s. Running buffer (PBST) was injected along the sixth channel to provide an “in-line” blank for referencing. Association rates (kₒₙ) and dissociation rates (koff) were calculated using a simple 1:1 Langmuir binding model (ProteOn Manager software version 2.1) by simultaneously fitting the association and dissociation sensorgrams. The equilibrium dissociation constant (KD) was calculated as the ratio koff/kₒₙ. As human IL-10R1 could not be regenerated without a loss of activity, the subsequent steps of ligand capture and analyte injection were performed channel per channel using a freshly immobilized sensorchip surface for every interaction.
A decreased affinity to the IL-10R1 may represent a distinct advantage when targeting IL-10 to inflamed tissues through fusion with an antibody. […]
(SPR reads the build-up and loss of mass on a sensor chip optically.)

The target in experiment [2] is T1, human IL-10R1 fused to an IgG Fc …. Briefly: SPR (ProteOn XPR36, 25 C), about 770 RU biotinylated IL-10R1-Fc on NLC chip, his-tagged cytokine as analyte. How it is done:
as §1
A decreased affinity to the IL-10R1 may represent a distinct advantage when targeting IL-10 to inflamed tissues through fusion with an antibody.

T1 sequence (chain, as listed by the source limits assumed): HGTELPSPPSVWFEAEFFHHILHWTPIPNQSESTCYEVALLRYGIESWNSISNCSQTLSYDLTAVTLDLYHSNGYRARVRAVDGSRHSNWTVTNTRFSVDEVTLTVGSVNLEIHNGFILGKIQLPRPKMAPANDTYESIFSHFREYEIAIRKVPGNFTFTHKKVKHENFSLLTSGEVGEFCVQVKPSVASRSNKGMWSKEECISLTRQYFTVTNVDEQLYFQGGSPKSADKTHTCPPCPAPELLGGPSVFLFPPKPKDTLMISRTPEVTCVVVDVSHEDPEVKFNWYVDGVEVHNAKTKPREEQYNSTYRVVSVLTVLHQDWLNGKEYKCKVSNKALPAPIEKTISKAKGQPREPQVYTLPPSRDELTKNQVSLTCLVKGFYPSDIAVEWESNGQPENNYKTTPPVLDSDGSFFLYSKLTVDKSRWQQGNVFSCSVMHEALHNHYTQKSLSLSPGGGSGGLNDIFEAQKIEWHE

B1: IL-10 (I87A)-his mutant cytokine (ligand)
chain: SPGQGTQSENSCTHFPGNLPNMLRDLRDAFSRVKTFFQMKDQLDNLLLKESLLEDFKGYLGCQALSEMIQFYLEEVMPQAENQDPDAKAHVNSLGENLKTLRLRLRRCHRFLPCENKSKAVEQVKNAFNKLQEKGIYKAMSEFDIFINYIEAYMTMKIRNVDHHHHHH
notes: The entry already carries I87A; Purified as the dimeric cytokine; also called hu IL-10 (I87A)
B1: the “fold reduction of affinity compared to IL-10 wild type” value in experiment [1] amounted to 10 fold. Besides, in experiment [2], the Kd (usually the free concentration of one partner at which half of the binding sites on the other are occupied at equilibrium, for simple one-to-one binding) was 0.476 nM; the koff (usually the rate constant with which the complex falls apart) is 0.000219 s⁻¹; the on-rate (kon) (usually the second-order rate constant of association) worked out at 461000 M⁻¹ s⁻¹.

B2: IL-10 (R24A)-his mutant cytokine (ligand)
chain: B1 chain with R24A, A87I
notes: The entry already carries R24A; Purified as the dimeric cytokine; also called hu IL-10 (R24A)
Consider B2, for which the “fold reduction of affinity compared to IL-10 wild type” value in experiment [1] turned out to be 2 fold. Besides, in experiment [2], the Kd is 0.0807 nM, the koff turned out to be 0.000184 s⁻¹ and the association rate constant (kon) stood at 2.28e+06 M⁻¹ s⁻¹.
